Bridge positions count the residues as written; N and C are the ends. Ends that are not written are not given here.
How the values were obtained:
L929 cells = test: Cytotoxicity assay: inhibition of TNF-α-induced cytolysis of L929 cells (MTT); format: cell-based, murine; conditions: FIG. 7
Method: FIG. 7. Inhibition of TNF-α-induced cytolysis of L929 cells by peptides derived from TNF-R. […] A murine fibroblast cell line, L929, was maintained in Dulbecco's modified Eagle's medium supplemented with 10% FCS, and the medium was replaced with serum free AIM-V medium (GIBCO BRL) immediately before the cells were used for the cytotoxicity assay. L929 cells were seeded at a density of 2×10^5 cells/ml in 96-well microtiter plates, and incubated for hr. at 37° C. under 5% CO2 in air. […] Immunol. Methods 119:203). Briefly, 10 μl of a 10 mg/ml solution of MTT were added to each well for 2 hr. at 37° C., and the color of the formazan product was developed by an overnight incubation at 37° C. with 100 μl of extraction buffer (20% SDS in 50% DMF, pH 4.7). The optical density of colored formazan was measured at 600 nm.

[1] = biological target: T1, TNF-α binding to TNF-R p55 expressed on U937 cells (Homo sapiens, UniProt P01375); test: Flow cytometry (FACS) of TNF-α binding to its cognate receptor on U937 cells, detected with anti-TNF-R antibody htr-9; format: cell-based; conditions: FIG. 6
T1 construct: endogenous in cells; host or cells: U937 (human leukemia cell line)
T1 sequence (P01375 77-233 limits assumed): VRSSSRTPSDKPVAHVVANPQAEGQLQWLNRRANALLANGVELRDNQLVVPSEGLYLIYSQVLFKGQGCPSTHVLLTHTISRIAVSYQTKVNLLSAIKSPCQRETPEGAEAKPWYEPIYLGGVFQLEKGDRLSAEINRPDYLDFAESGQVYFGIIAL
From the text: FIG. 5. […] 1=U937 cells stained with fluorescein-conjugated secondary antibody. 2=U937 cells stained with an anti-TNF receptor antibody (htr-9) and secondary antibody. 3=U937 cells stained with anti-TNF-R antibody in the presence of TNF-α and secondary antibody.
FIG. 6. […] The results represent the means from two independent experiments.
A human leukemia cell line, U937, was maintained in RPMI-1640 medium supplemented with 10% FCS. In order to quantitate the binding of TNF-α to its cognate receptor expressed on U937 cells, 1×10^5 cells were re-suspended in PBS containing 0.5% BSA and 0.05% NaN3 (binding buffer). […] Then, 50 μl of an anti-TNF receptor antibody at 3 μg/ml in binding buffer were added to the cells for 1 hr. at 4° C. The cells were washed in binding buffer and stained with 50 μl (10 μg/ml) of fluorescein-conjugated goat ant-mouse IgG secondary antibody (GIBCO BRL, Gaithersburg, Md.) for 30 min. at 4° C. in the dark. Following washing in binding buffer, the cells were analyzed using FACScan flow cytometer (Becton Dickinson). The gates were set on the live cell population, and the degree of inhibition of TNF-α/cell binding by peptides was calculated on the basis of mean values of each histogram.

Human recombinant TNF-α [2] = biological target: T2, Human recombinant TNF-α (human, UniProt P01375); test: competitive radioreceptor assay, 125I-TNF-α on immobilized TNF-R-IgG
Human recombinant TNF-α [3] = biological target: T2, Human recombinant TNF-α; test: competitive radioreceptor assay, dose-response, 125I-TNF-α on immobilized TNF-R-IgG
Human recombinant TNF-α [4] = biological target: T2, Human recombinant TNF-α; test: flow cytometry on U937 cells, TNF-α preincubated with peptide, read out with htr-9

Molecule: CC(C)C[C@@H]1NC(=O)[C@H](Cc2ccc(O)cc2)NC(=O)[C@H](CCC(N)=O)NC(=O)[C@H](CO)NC(=O)[C@H](Cc2c[nH]c3ccccc23)NC(=O)[C@@H](NC(=O)[C@@H](N)Cc2ccc(O)cc2)CSSC[C@@H](C(=O)N[C@@H](Cc2ccc(O)cc2)C(=O)O)NC1=O [WP9QY, YC WSQYL CY]
- cells protected against TNF-α-induced apoptosis/cytotoxicity (L929 cells; peptide at 75 μM, TNF-α 50 pg/ml plus ACT-D 1 μg/ml): ~90%

Molecule: YC WSQNL CY (YCWSQNLCY; disulfide 2-8 (inferred)) [WP9Q, exocyclic peptide from TNF-R loop 1 of domain 3, Gln instead of Glu]
- inhibition of TNF-α binding to U937 cells in dose-response assay (in words) [1]: inhibited by each peptide in a dose-dependent manner
- inhibition of TNF-α-induced cytotoxicity of L929 cells (in words) (L929 cells): dose-dependent inhibitory activity
- inhibitory effect on TNF-α-induced cytotoxicity relative to WP9QY (L929 cells): about half of the effects of WP9QY

Molecule: YC ASENH CY (YCASENHCY; disulfide 2-8 (inferred)) [WP5JY, exocyclic peptide from TNF-R loop 1 of domain 2]
- inhibition of TNF-α binding to U937 cells in dose-response assay (in words) [1]: inhibited by each peptide in a dose-dependent manner

Molecule: YCWSQNLCY (disulfide 2-8 (inferred)) [WP9Q]
- fold activity against the best WP5 peptides (Human recombinant TNF-α [2]): 2 fold

Molecule: YCWSQYLCY (disulfide 2-8 (inferred)) [WP9QY]
- IC50 (Human recombinant TNF-α [3]): 5 µM
- IC50 (Human recombinant TNF-α [4]): 75 µM

— patent US6265535A, “Peptides and peptide analogues designed from binding sites of tumor necrosis factor receptor superfamily and their uses” (The Trustees of the University of Pennsylvania, priority 1997, dated 2001)
